Measurements published in article PMC11496107.

B1: LXRα-VP16 (wild-type liver X receptor-α fused to VP16) [human] / Gal4-SRC1 (aa 570-780) [not stated] (parent)
chain 1: MSLWLGAPVPDIPPDSAVELWKPGAQDASSQAQGGSSCILREEARMPHSAGGTAGVGLEAAEPTALLTRAEPPSEPTEIRPQKRKKGPAPKMLGNELCSVCGDKASGFHYNVLSCEGCKGFFRRSVIKGAHYICHSGGHCPMDTYMRRKCQECRLRKCRQAGMREECVLSEEQIRLKKLKRQEEEQAHATSLPPRASSPPQILPQLSPEQLGMIEKLVAAQQQCNRRSFSDRLRVTPWPMAPDPHSREARQQRFAHFTELAIVSVQEIVDFAKQLPGFLQLSREDQIALLKTSAIEVMLLETSRRYNPGSESITFLKDFSYNREDFAKAGLQVEFINPIFEFSRAMNELQLNDAEFALLIAISIFSADRPNVQDQLQVERLQHTYVEALHAYVSIHHPHDRLMFPRMLMKLVSLRTLSSVHSEQVFALRLQDKKLPPLLSEIWDVHE
chain 2: PSRLNIQPAKAESKDNKEIASILNEMIQSDNSSSDGKPLDSGLLHNNDRLSDGDSKYSQTSHKLVQLLTTTAEQQLRHADIDTSCKDVLSCTGTSNSASANSSGGSCPSSHSSLTERHKILHRLLQEGSPSDITTLSVEPDKKDSASTSVSVTGQVQGNSSIKLELDASKKKESKDHQLLRYLLDKDEKDLRSTPNLSLDDVKVKVEKKEQ

Variants of: B1
Assay: mammalian two-hybrid assay (luciferase reporter, HEK293 cells)
Settings: with Gal4-SRC1 (aa 570-780); GOF sub-panel; highest T0901317 (T09) dose plotted (rightmost point); 20 h; parent: 100; read off a plot

percent of parent	Variant
100 % WT	chain 1 M346V

Same assay, conditions: with Gal4-SRC1 (aa 570-780); GOF sub-panel; untreated condition (leftmost point, plotted an order of magnitude below the lowest T09 dose); 20 h; parent: 100; read off a plot

percent of parent	Variant
18 % WT	chain 1 M346V
